Targets include TRA-CT6 mAb^2; TRA-CT6ZW-FT; TRA-CT6ZWY.
Holding throughout (experiment): BLI; reverse outlay: full-length IgG-like constructs (50 ug/mL) loaded on anti-human Fc tips; VEGF in 2-fold dilutions from 500 nM; 25 C, PBS with Kinetic Buffer
Test [1] deals with TRA-CT6_(ZWHY)/CH3_(ZWLY).
In test [2] the target is TRA-CH3_(ZWHY)/CT6_(ZWLY).

What is called Kd is the constant that tells how readily two partners part at equilibrium.

In the case of “VEGF isomer 109 with N75Q mutation (ligand)”, the Kd with TRA-CT6 mAb^2 is 2.78 nM; in the test with TRA-CT6ZW-FT it was 1.48 nM; in test [1], 16.7 nM; with TRA-CT6ZWY it was 16.6 nM; in test [2], 6.2 nM.

Source of the values: article PMC7920882.
